Where a chain is given by its changes, count along the chain named. In names and notes the source's numbering stands.
Experiments:
[1] = molecular target: the molecule itself; assay: isothermal titration calorimetry, dilution of concentrated XCL into buffer; tetramer-dimer equilibrium; tetramer-dimer equilibrium of XCL by dilution ITC
Protocol: In order to accurately measure the equilibrium constant of tetramerisation and also determine the thermodynamics of the tetramerisation of XCL, the inventors used isothermal titration calorimetry (Burrows et al., (1994) Lovatt et al., (1996) Barranco-Medina et al. (2009)). In this method, a concentrated solution of XCL was diluted in a buffer, and the dissociation heat of the dimers (or of the monomers) was measured. The quantity of heat released for each injection is governed by the enthalpy exchange from the tetramer to the dimer and the tetramer-dimer equilibrium constant.

[2] = SDS-PAGE of tetramer and disulphide bridge stability; type: physicochemical; settings: reduced glutathione 10 mM in oxidation buffer
Protocol: The clone A38C was obtained by directed mutagenesis by using the XCL plasmid as a matrix and the protein produced and purified by using the same protocol as that used to produce XCL (Trigueros et al. (2003)). A yield of 25 mg of purified protein per litre of culture was obtained. The last part of the protocol consisted in a step of oxidation for 12 hours in the presence of 10 mM of oxidised glutathione. This step is required in order to produce disulphide bridges between the monomers. The forming of these covalent bonds was verified by SDS-PAGE. Two SDS-PAGE were prepared. Beta-mercaptoethanol was added to the samples in the first gel while beta-mercaptoethanol was not added to the second gel. When XCL is heated to 95° C. 5 min before the deposit, a single band is observed with a molecular weight slightly greater than 20 kDa on the two gels. This band corresponds to the species in monomer form.
A variant T12C was produced in the same manner as A38C by directed mutagenesis by using the XCL plasmid as a matrix. By using the same protocol, 10 mg of protein per litre of culture were produced. The oxidation rate of the variant T12C was sought by using the same method by SDS-PAGE as for A38C. These rates were compared with those obtained with the variant A38C. Several oxidative conditions were tested with different concentrations of reduced glutathione. […]

[3] = Confinement of fluorescein in the lectin cavity; settings: 4 days at ambient temperature, free fluorescein eliminated again
Protocol: The confinement experiments are carried out by incubating the wild-type protein (XCL) or the mutants (A38C) with the molecule to be tested. In order to carry out the control experiments with the mutant A38C, an oxidation step is carried out in the presence of GSSG in a phosphate buffer 50 mM, 100 mM NaCl, pH 7.2, OVN. The GSSG is then eliminated on a PD-10 sephadex G-25M column (GE Healthcare) pre-balanced in a phosphate buffer 50 mM, 100 mM NaCl, pH 8.5. The eluate is concentred at 1 ml on Vivaspin 15R 30,000 MWCO (Sartorius stedim). A batch of A38C is reduced to TCEP (under argon) with adding of NaOH for a final pH of 8.5. […] The quantity of fluorescein is measured by using an absorption coefficient of e511 nm=75,000 cm^−1 M^−1. The concentrations of XCL and of A38C after the confinement are calculated with e278 nm=[…]. The percentage of confinement is calculated by forming the ratio of the fluorescein/protein concentrations.
In the case with XCL, the inventors incubated the protein (15 μM) with fluorescein (10 mM) and then separated the protein from the non-confined molecules of fluorescein by two successive gel filtration columns. Beforehand, the inventors verified that if these two columns on the fluorescein solution are carried out at 10 mM, no residual free fluorescein is detected. […]

[4] = Chemical dissociation by size exclusion chromatography at acidic pH; type: physicochemical
Protocol: The size exclusion chromatography experiments were carried out on a GE-Healthcare Superose 12 PC 3.2/30 column. The columns are pre-balanced in the buffer tested, namely phosphate buffer 50 mM, 100 mM NaCl, pH7.2 or pH 4.4 in the absence or in the presence of 0.003% of SDS. The flow rate is 0.5 mL/min. The BSA and the RNase A are used as a size marker.
The inventors studied the behaviour of XCL in denaturing chemical conditions close to those encountered in the lysosomes. The analysis was carried out via exclusion chromatography with an acidic pH (pH 4.4). It appears that the elution peak of XCL in these denaturing conditions is displaced to greater elution volumes showing the appearance of a smaller size. When 0.003% SDS is added, the elution peak is displaced to the elution volume of the RNAse A which has a molecular weight close to the XCL monomer.
The behaviour of the oxidised mutant A38C was also analysed. […] The addition of the disulphide bridge therefore increases the stability of the protein assembly.

[5] = Balanced FRET, exchange of monomers; type: physicochemical; settings: 1 h incubation, pH 8.5
Protocol: Fluorescence energy transfer was used to reveal the exchange of the XCL monomers. The exchange reaction is initiated by mixing the same volume of XCL-RITC (1 μM or only the buffer as a reference) and of XCL-FITC (1 μM) at 25° C. in 50 mM of phosphate buffer, 100 mM NaCl, pH 8.5. After one hour of incubation, the emission spectrum of the sample excited at 490 nm is recorded by spectrofluorimetry (Photon Technology International QM-4). The same experiments were carried out with A38C-RITC and A38C-FITC.
The oligomerization balance of the XCL protein was characterised by the measurement of the appearance of resonance energy transfer of the Förster type (FRET) between two populations of XCL labelled separately either with FITC (Fluorescein IsoThioCyanate) or with RITC (Rhodamine IsoThioCyanate).
In this same figure, is also shown the spectrum obtained by mixing the labelled protein, either by the donor or by the acceptor (dotted line curve). This spectrum was deconvoluted, which gives the spectra shown as a dotted line in FIG. 2A.
For the purposes of comparison, the same experiment was carried out with the variant A38C. This variant is covalently bonded by two additional disulphide bridges. A perfectly superimposable spectrum was obtained after mixing donor and acceptor labelled proteins and incubation of this mixture for 1 h at ambient temperature (dotted lines of FIG. 3B).

[6] = molecular target: the molecule itself; assay: size exclusion chromatography at pH 7.2 and pH 4.4; tetramer kept
Protocol: The behaviour of the oxidised mutant A38C was also analysed. […] When the pH is decreased to 4.4, no modification in the elution volume is observed. The addition of the disulphide bridge therefore increases the stability of the protein assembly. The adding of 0.003% SDS leads to the dissociation of the tetramer into dimers, constituted of monomers bonded together by the disulphide bridge.

[7] = molecular target: T1, XCL labelled with RITC (Xerocomus chrysenteron, RITC on surface epsilon-amino groups, 0.9 mol of RITC per mol of XCL); assay: FRET kinetics at 580 nm after mixing XCL-FITC and XCL-RITC, double exponential fit; fast dissociation of the tetramer; k2, faster of the two dissociation pathways of the tetramer
T1 construct: FRET acceptor population of XCL; also called RITC-XCL; XCL-RITC
T1 chain: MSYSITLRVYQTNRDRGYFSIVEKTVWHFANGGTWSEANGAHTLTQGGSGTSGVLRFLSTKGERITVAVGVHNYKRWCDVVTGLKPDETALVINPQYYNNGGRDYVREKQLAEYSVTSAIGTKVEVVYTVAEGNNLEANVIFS
Protocol: (§1) The speed of the exchange of subunits was measured by the same technique. The reaction is initiated by mixing the same volume of XCL-RITC (1 μM) and of XCL-FITC (1 μM) at 25° C. in 50 mM of phosphate buffer, 100 mM NaCl, pH 8.5. The excitation is carried out at 468 nm and the fluorescence emission at 580 nm is recorded every 0.5 seconds. The fluorescence intensity is normalised by using the equation: […]

[8] = molecular target: T1, XCL labelled with RITC; assay: FRET kinetics at 580 nm after mixing XCL-FITC and XCL-RITC, double exponential fit; slow dissociation of the tetramer (proportion a=0.39); k1, slower of the two dissociation pathways of the tetramer
Protocol: as §1

B1: Xerocomus chrysenteron lectin (XCL) (other)
chain: T1 chain
notes: Recombinant fungal lectin, a homotetramer in solution; also called wild-type protein; native XCL protein
For B1, the Kd [1] was 4.5 µM.

B2: T12C: XCL variant with threonine 12 replaced by cysteine, SEQ ID NO: 3 (protein)
chain: T1 chain with T12C
modifications: Variant T12C
With B2 the “stability of the additional disulphide bridge” value [2] was “less stable than the disulphide bridge of A38C”.

B3: A38C: XCL variant with alanine 38 replaced by cysteine, SEQ ID NO: 2; A38R reduced before confinement, A38NR not reduced, A38Cox oxidised (protein)
chain: T1 chain with A38C
modifications: Variant A38C
notes: A38R reduced before confinement, A38NR not reduced, A38Cox oxidised
For B3, the “confinement rate after incubation” value [3] was “remained unchanged”, the “oligomeric state by elution volume at pH 4.4 with SDS” value ([4]; pH 4.4, 0.003% SDS) was “dissociation of the tetramer into dimers” and the “oligomeric state by elution volume at pH 4.4” value ([4]; pH 4.4, no SDS) was “no modification in the elution volume is observed”. For the same molecule, the “FRET between FITC- and RITC-labelled protein after mixing (monomer redistribution)” value [5] was “no FRET is observed”.

B4: XCL variant A38C, oxidised (other)
chain: T1 chain with A38C
modifications: interchain disulphide bridge between Cys 38 of opposite monomers (oxidised with GSSG)
notes: Homotetramer with two added disulphide bridges that link monomers diagonally; In the FRET experiment it was labelled with FITC or RITC; also called mutant A38C; oxidised mutant A38C
B4: binds [6].

B5: XCL labelled with FITC (other)
chain: T1 chain
modifications: FITC on surface epsilon-amino groups, 4 mol of FITC per mol of XCL
notes: FRET donor population of XCL; also called FITC-XCL; XCL-FITC
In the case of B5, the koff [7] is reported as 0.042 s⁻¹ and the koff [8] is reported as 0.012 s⁻¹.
